IntAct's records for PubMed 19955185

B1: Peroxisome proliferator-activated receptor alpha (Homo sapiens), Q07869 (parent)
chain: MVDTESPLCPLSPLEAGDLESPLSEEFLQEMGNIQEISQSIGEDSSGSFGFTEYQYLGSCPGSDGSVITDTLSPASSPSSVTYPVVPGSVDESPSGALNIECRICGDKASGYHYGVHACEGCKGFFRRTIRLKLVYDKCDRSCKIQKKNRNKCQYCRFHKCLSVGMSHNAIRFGRMPRSEKAKLKAEILTCEHDIEDSETADLKSLAKRIYEAYLKNFNMNKVKARVILSGKASNNPPFVIHDMETLCMAEKTLVAKLVANGIQNKEAEVRIFHCCQCTSVETVTELTEFAKAIPGFANLDLNDQVTLLKYGVYEAIFAMLSSVMNKDGMLVAYGNGFITREFLKSLRKPFCDIMEPKFDFAMKFNALELDDSDISLFVAAIICCGDRPGLLNVGHIEKMQEGIVHVLRLHLQSNHPDDIFLFPKLLQKMADLRQLVTEHAQLVQIIKKTESDAALHPLLQEIYRDMY

Variants of: B1
Conditions: with ncor1_human NCOR1, O75376
Sequence of ncor1_human NCOR1, O75376 (O75376 whole entry): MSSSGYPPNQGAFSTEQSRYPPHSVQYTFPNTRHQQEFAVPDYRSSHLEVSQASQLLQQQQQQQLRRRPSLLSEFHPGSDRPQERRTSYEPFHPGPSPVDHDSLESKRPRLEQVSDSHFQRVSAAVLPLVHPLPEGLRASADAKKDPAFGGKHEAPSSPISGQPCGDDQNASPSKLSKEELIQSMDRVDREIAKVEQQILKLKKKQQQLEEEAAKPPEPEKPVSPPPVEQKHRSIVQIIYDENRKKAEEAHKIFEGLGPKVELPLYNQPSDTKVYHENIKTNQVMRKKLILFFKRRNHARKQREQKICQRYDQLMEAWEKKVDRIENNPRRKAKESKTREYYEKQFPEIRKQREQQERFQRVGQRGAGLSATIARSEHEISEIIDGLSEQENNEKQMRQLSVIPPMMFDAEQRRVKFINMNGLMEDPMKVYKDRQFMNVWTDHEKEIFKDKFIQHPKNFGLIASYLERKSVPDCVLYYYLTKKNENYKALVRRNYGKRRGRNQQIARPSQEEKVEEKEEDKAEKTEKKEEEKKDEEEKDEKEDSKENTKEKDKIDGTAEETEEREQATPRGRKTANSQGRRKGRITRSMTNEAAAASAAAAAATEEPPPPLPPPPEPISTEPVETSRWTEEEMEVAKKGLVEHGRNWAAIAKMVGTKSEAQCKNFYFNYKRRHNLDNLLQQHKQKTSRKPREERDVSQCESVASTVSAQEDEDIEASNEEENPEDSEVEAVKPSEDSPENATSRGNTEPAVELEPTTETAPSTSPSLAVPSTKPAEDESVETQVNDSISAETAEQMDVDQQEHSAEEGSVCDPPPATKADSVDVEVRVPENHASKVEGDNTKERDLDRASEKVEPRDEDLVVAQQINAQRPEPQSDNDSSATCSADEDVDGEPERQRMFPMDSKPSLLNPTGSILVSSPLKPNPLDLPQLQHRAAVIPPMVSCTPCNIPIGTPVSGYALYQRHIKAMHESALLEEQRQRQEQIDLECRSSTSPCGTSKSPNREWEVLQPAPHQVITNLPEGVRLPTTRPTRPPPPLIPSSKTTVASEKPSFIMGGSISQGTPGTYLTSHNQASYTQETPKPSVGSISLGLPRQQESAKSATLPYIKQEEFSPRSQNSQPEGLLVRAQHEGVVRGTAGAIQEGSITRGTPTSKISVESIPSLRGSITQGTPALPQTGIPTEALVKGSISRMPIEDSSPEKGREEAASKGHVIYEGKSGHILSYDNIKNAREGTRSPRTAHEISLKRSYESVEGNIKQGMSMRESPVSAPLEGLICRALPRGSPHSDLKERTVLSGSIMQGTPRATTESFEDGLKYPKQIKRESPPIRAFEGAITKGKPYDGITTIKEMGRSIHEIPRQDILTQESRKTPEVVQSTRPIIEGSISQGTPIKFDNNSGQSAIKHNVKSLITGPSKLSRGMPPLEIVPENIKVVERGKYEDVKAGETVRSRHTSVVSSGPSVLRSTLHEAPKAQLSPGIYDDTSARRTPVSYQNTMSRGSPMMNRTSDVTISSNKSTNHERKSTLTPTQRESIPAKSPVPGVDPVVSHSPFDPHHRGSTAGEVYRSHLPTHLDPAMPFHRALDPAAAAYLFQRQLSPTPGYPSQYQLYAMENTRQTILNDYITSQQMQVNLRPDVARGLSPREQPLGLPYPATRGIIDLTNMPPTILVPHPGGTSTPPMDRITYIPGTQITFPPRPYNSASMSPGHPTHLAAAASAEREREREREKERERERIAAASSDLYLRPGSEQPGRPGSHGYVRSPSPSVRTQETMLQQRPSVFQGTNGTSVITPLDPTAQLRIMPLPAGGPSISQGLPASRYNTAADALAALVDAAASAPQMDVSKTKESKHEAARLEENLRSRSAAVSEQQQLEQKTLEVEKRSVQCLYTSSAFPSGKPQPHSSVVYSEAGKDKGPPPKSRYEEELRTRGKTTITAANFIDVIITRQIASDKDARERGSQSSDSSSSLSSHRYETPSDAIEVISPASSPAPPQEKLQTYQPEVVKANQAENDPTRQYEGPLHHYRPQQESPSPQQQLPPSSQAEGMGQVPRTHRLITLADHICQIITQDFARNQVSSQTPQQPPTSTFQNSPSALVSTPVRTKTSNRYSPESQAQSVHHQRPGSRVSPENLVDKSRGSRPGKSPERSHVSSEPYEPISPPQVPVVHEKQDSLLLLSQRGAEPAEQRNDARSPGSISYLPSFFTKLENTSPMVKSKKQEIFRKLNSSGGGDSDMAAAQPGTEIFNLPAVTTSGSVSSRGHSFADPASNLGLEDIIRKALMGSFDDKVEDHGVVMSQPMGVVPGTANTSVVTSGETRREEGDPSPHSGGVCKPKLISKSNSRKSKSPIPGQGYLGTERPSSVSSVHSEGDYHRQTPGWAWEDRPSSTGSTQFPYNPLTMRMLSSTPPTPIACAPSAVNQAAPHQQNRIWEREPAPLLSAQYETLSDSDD

| effect of a mutation on the interaction | Variant |
| --- | --- |
| decreasing interaction | MVDTESPLCPLSPLEAGDLESPLSEEFLQEMGNIQEISQSIGEDSSGSFGFTEYQYLGSCPGSDGSVITDTLSPASSPSSVTYPVVPGSVDESPSGALNIECRICGDKASGYHYGVHACEGCKGFFRRTIRLKLVYDKCDRSCKIQKKNRNKCQYCRFHKCLSVGMSHNAIRFGRMPRSEKAKLRAEILTCEHDIEDSETADLKSLAKRIYEAYLKNFNMNKVKARVILSGKASNNPPFVIHDMETLCMAEKTLVAKLVANGIQNKEAEVRIFHCCQCTSVETVTELTEFAKAIPGFANLDLNDQVTLLKYGVYEAIFAMLSSVMNKDGMLVAYGNGFITREFLKSLRKPFCDIMEPKFDFAMKFNALELDDSDISLFVAAIICCGDRPGLLNVGHIEKMQEGIVHVLRLHLQSNHPDDIFLFPKLLQKMADLRQLVTEHAQLVQIIKKTESDAALHPLLQEIYRDMY [K185R] |
